From US20170157251A1, “Bi-Specific Monovalent Diabodies That are Capable of Binding CD19 and CD3, and Uses Thereof” (MacroGenics, Inc., priority 2015, published 2017)

How the values were obtained:
[1] = tested on: cynomolgus monkey blood leukocytes; assay: Flow cytometry binding to cynomolgus monkey blood leukocytes (B and T cells); conditions: 0.005 to 80 nM
Description: (§1) Following incubation, binding to leukocytes was detected using a biotinylated anti-E-coil/K-coil (EK) mAb, which recognizes the EK coil heterodimerization region of the DART proteins and streptavidin-PE. […] Similarly, CD20 was used as a B cell marker instead of CD19. Therefore, in this study, the CD4+ and CD8+ gated events represent the T cell population and CD20+ gated events represent the B cell population.

human blood leukocytes = assay: Flow cytometry binding to human blood leukocytes (B and T cells); conditions: 0.005 to 80 nM
Description: as §1

B1: Control DART 2: control DART capable of binding to fluorescein and CD19 (protein)
chain 1: ENVLTQSPATLSVTPGEKATITCRASQSVSYMHWYQQKPGQAPRLLIYDASNRASGVPSRFSGSGSGTDHTLTISSLEAEDAATYYCFQGSVYPFTFGQGTKLEIKGGGSGGGGEVKLDETGGGLVQPGRPMKLSCVASGFTFSDYWMNWVRQSPEKGLEWVAQIRNKPYNYETYYSDSVKGRFTISRDDSKSSVYLQMNNLRVEDMGIYYCTGSYYGMDYWGQGTSVTVSSASTKGEVAACEKEVAALEKEVAALEKEVAALEKGGGDKTHTCPPCPAPEAAGGPSVFLFPPKPKDTLMISRTPEVTCVVVDVSHEDPEVKFNWYVDGVEVHNAKTKPREEQYNSTYRVVSVLTVLHQDWLNGKEYKCKVSNKALPAPIEKTISKAKGQPREPQVYTLPPSREEMTKNQVSLWCLVKGFYPSDIAVEWESNGQPENNYKTTPPVLDSDGSFFLYSKLTVDKSRWQQGNVFSCSVMHEALHNHYTQKSLSLSPGK
chain 2: QAVVTQEPSLTVSPGGTVTLTCRSSTGAVTTSNYANWVQQKPGQAPRGLIGGTNKRAPWTPARFSGSLLGGKAALTITGAQAEDEADYYCALWYSNLWVFGGGTKLTVLGGGGSGGGGEVKLDETGGGLVQPGRPMKLSCVASGFTFSDYWMNWVRQSPEKGLEWVAQIRNKPYNYETYYSDSVKGRFTISRDDSKSSVYLQMNNLRVEDMGIYYCTGSYYGMDYWGQGTSVTVSSASTKGKVAACKEKVAALKEKVAALKEKVAALKE
modifications: Amino Acid Sequence of the First Polypeptide Chain of Control DART 2; Amino Acid Sequence of the Second Polypeptide Chain of Control DART 2
binding to B cells (CD20+) and T cells (CD4+ and CD8+) [1]: only mono-specific binding to B cells
binding to B cells (CD20+) and T cells (CD4+ and CD8+) (human blood leukocytes): only mono-specific binding to B cells
